Ends that are not written are not given here.
Columns and labels:
PD-L1 [1] = target: T1, PD-L1 (Homo sapiens, UniProt Q9NZQ7); assay: Peptide library study of stability and PD-L1 affinity; type: binding; details: library of synthesized peptides
Experimental: Initial research was focuses on understanding the interaction of PD-1 and PD-L1 based on X-ray crystal structure data (FIG. 14) with the goal of identifying the peptide sequence that is selectively mediating the interactions. After the crystal structure of each protein was identified, a proprietary Fortran program was used to analyze which amino acid sequences interact most closely between the two proteins. Number of occurrences for each sequence was calculated and used to identify the peptide sequences used in this study. […] As a first step, a library of peptides was synthesized and the stability and PD-L1 affinity was studied. […] Data related to anti-PD-L1 and mock peptide was used to synthesize peptides for this study. The binding sequences of each peptide were further modified to incorporate either biotin or fluorophore for antigen detection, and to increase solubility of the peptide.

PD-L1 [2] = target: T1, PD-L1; assay: Immunohistochemistry using Cy5-peptide (fluorescence) on FFPE tissues and lung cancer TMA; type: binding; parameters: Seven PD-L1 expressing NSCLC patient tissues were obtained from the MU OneHealth tissue bank; tissue MU OneHealth tissue bank; U.S. Biomax (TMA) LC1923; host or cells: FFPE placenta, seven NSCLC patient tissues, 192-case lung cancer tissue microarray, four Hodgkin's lymphoma cases
Text: PD-L1 expression was investigated in the same seven FFPE tissues and 192 lung cancer cases on a microarray using our peptide conjugated with Cy5 fluorophore. A lung cancer tissue microarray (TMA) was purchased from U.S. Biomax that contains 192 separate cases of various types of lung cancers (LC1923, biomax.us). In addition, seven NSCLC patient tissues were obtained from the Mizzou OneHealth tissue bank and de-identified according to IRB protocols. Paraffin-embedded tissue slides were baked overnight, then de-waxed and rehydrated according to standard protocols. Tissue sections were then subjected to antigen retrieval in EDTA at 95° C. for 20 minutes in EDTA ([…]). The solution was cooled for an additional 20 minutes on the bench top prior to buffer rinse. Tissues were then incubated with 15 μM Cy5-conjugated peptide for 2 hours in a humid chamber in the dark at RT. After 2 hours, slides were washed with buffer. The slides were then mounted using nucleus-specific DAPI counterstain and cover slipped. Slides were then imaged using fluorescence microscopy on a Leica DM5500 and compared to the same sections which had been stained with the Ventana antibody. For fluorescent analysis, DAPI channels and Cy5 channels were overlaid to image cell nuclei and PD-L1 expression, respectively.
Staining of the placenta and seven selected NSCLC patient tissues was again compared using the SP263 antibody and RK-10-Cy5 which was conjugated with a Cy5 fluorophore (FIG. 16). To stain with the fluorescent PD-L1 peptide, antigen retrieval was performed and tissue slides were treated with 15 μM fluorescent peptide in a dark, humid chamber for 2 hours, washed with buffer, then counter-stained and mounted with DAPI nucleus stain. Peptide-stained slides were imaged on a Leica DM5500 using channels specific for DAPI or Cy5, and channels were overlaid to examine PD-L1 expression. To confirm the data from the IHC stained tissues, the same seven patient tissues A-G were stained with RK-10-Cy5 (FIG. 10). […]

T1 sequence (Q9NZQ7 19-290): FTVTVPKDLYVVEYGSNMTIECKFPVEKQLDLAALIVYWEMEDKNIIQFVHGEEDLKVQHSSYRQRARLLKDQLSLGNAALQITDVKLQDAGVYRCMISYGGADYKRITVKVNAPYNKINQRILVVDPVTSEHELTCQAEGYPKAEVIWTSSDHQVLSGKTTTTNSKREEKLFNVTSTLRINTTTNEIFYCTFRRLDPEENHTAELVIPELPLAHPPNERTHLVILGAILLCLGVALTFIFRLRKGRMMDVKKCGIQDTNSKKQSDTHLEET

PD-L1 affinity (PD-L1 [1]): high affinity | staining of Reed-Sternberg cells (PD-L1 [2]; four Hodgkin's lymphoma patient samples, FIG. 13): showed PD-L1 staining
Substance: Cy5-GSGSGSTYLCGAISLAPKAQIKESL [RK-10-Cy5]
tumor staining in lung cancer tissue microarray (PD-L1 [2]; 192 lung cancer cases (U.S. Biomax TMA), majority of cases, FIG. 11 panels d, e, f): consistent, specific staining in tumor cells and immune infiltrate | fluorescent tumor staining in NSCLC patient tissues (PD-L1 [2]; seven NSCLC patient tissues A-G, 15 μM fluorescent peptide, 2 hours, FIG. 10): stained many areas of tumor that the SP263 antibody did not
